In data set [1] the target is T1, FGFR4 Protein, Human, Recombinant (His Tag) (Homo sapiens, UniProt P22455).
T1 construct: His tag; purchased Sino Biological 10538-H08H
T1 sequence (P22455 22-369 limits assumed): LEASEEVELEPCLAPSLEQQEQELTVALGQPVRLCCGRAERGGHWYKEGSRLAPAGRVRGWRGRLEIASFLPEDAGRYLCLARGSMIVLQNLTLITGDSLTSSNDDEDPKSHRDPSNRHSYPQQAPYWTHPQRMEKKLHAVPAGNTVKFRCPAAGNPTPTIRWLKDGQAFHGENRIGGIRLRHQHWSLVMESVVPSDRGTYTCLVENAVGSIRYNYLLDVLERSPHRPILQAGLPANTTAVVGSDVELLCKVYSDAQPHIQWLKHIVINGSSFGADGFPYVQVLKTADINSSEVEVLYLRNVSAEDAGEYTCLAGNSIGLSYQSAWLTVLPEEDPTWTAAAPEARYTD
Briefly: SPR FGFR versatility, FGFR4 on immobilized cyclic peptide. The settings on record: 1 μmol/L FGFR, 25° C. The class given is binding. As to the method: The binding of the cyclic peptide to various types of FGFRs was evaluated using a surface plasmon resonance (SPR) method.
The binding affinity of the chemically synthesized cyclic peptide to FGFR was evaluated by the following procedure.
A CM5 sensor chip (Cytiva, 29149603) was set in Biacore-T200 (manufactured by Cytiva) which is a surface plasmon resonance device, and an HBS-EP buffer (Cytiva, BR100826) was added as a running buffer at a flow rate of 10 μL/min to equilibrate the flow channel. Next, 70 μL of a mixed aqueous solution of 0.2 mol/L 1-(3-dimethylaminopropyl)-3-ethylcarbodiimide (EDC) and 0.05 mol/L N-hydroxysuccinimide (NHS) was added to activate the sensor chip. Then, a cyclic peptide prepared to 2 mg/mL in HBS-EP buffer was added thereto to perform immobilization at about 200 RU. […]
After various FGFRs (FGFR1 Protein, Human, Recombinant (His Tag) (Sino Biological, 10616-H08H), FGFR3 Protein, Human, Recombinant (ECD, His Tag) (Sino Biological, 16044-H08H), FGFR4 Protein, Human, Recombinant (His Tag) (Sino Biological, 10538-H08H)) diluted with HBS-EP to 1 μmol/L at 25° C. was added to each flow channel of the cyclic peptide-immobilized sensor chip prepared above, for 10 minutes, HBS-EP was allowed to flow as a running buffer for 30 minutes, and the binding of various FGFRs to the cyclic peptide was measured. […]

Data set [2] in a line: Reductive stability of cyclic peptide (DTT treatment, LC). The settings on record: residual rate after DTT treatment, room temperature, 1 hour. The class given is physicochemical. As for the experimental part:
The molecular stability of the cyclic peptide was evaluated by analyzing an aqueous solution of the cyclic peptide treated with a reducing agent by liquid chromatography (LC).
The reducing agent treatment was performed under the following conditions based on the concentration of glutathione contained in the cells. 25 μL of a 0.2 mg/mL cyclic peptide aqueous solution was prepared, 58.8 μL of a 12.6 mmol/L DTT aqueous solution was added to the aqueous solution, and the mixture was incubated at room temperature for 1 hour to obtain an aqueous solution of the cyclic peptide treated with a reducing agent. The DTT aqueous solution was used by diluting a 1 mol/L (+−)-dithiothreitol (DTT) solution (FUJIFILM Wako Pure Chemical Corporation, 044-33871) with water. The total area of all the peaks in LC/MS of the cyclic peptide before the reducing agent treatment was set to 100%, and the proportion of the total area of all the peaks in LC/MS of the aqueous solution of the cyclic peptide treated with the reducing agent was determined to calculate the residual rate of the cyclic peptide, and the molecular stability was evaluated according to the following evaluation criteria. The evaluation result preferably satisfies the evaluation criteria A, B, or C.
• A: The residual rate of cyclic peptide is 90% or more. • B: The residual rate of the cyclic peptide is 70% or more and less than 90% • C: The residual rate of the cyclic peptide is 50% or more and less than 70% • D: The residual rate of the cyclic peptide is less than 50%
The LC used for the evaluation of molecular stability was set to the following conditions. • LC device: Prominence series (pump, column oven, autosampler, detector) (manufactured by Shimadzu Corporation) • Detector: photodiode array detector (SPD-M20A), measurement wavelength of 280 nm • Column: TSKgel ODS-100V, inner diameter of 4.6 mm×length of 150 mm, particle diameter of 5 μm (manufactured by Tosoh Corporation) • Eluent A: solution containing 0.1% trifluoroacetic acid as solute, and solvent is 100% water • Eluent B: solution containing 0.1% trifluoroacetic acid as solute, and solvent is 100% acetonitrile • Flow rate: 1.0 mL/min • Injection amount: 25 μL • Gradient: 20% to 50%: Eluent B (0 to 15 minutes), 100%: Eluent B (15 minutes) • Column temperature: 40° C.

Consider “335 (ACVWTFDRHAQEISQALHKVKKK; not fully specified; Description of Artificial Sequence: Cyclic peptide) [compound 335]”, for which the “Evaluation result of binding affinity to FGFR4” value in data set [1] is recorded as “A (The binding amount is 0.05 molecules of FGFR/one molecule of the cyclic peptide or more.)”. Moreover, the “Evaluation result of reductive stability” value in data set [2] is “B (The residual rate of the cyclic peptide is 70% or more and less than 90%)”.

The values are drawn from patent US20260008817A1, “CYCLIC PEPTIDE OR SALT THEREOF, AND USES THEREOF” (FUJIFILM Corporation, priority 2023, published 2026).
